{"source": "paper PMC3631546", "origin": "cited, not measured here", "biological_target": "His37 (UniProt position 37, IIGILHLILWI)", "assay": "NMR", "conditions": "membrane-bound tetrameric channel, no drug mentioned", "data": [{"substance": "Influenza A M2 proton channel, transmembrane peptide (M2TM) (Influenza A virus (strain not stated))", "values": [{"measurement": "pKa", "value": 8.2}]}]}
